Experimental data as given in US20260116944A1, “NOVEL TRIPLE GLP-1/GIP/GLUCAGON RECEPTOR AGONIST AND A PHARMACEUTICAL COMPOSITION FOR PREVENTING OR TREATING OBESITY COMPRISING THE SAME” (HANMI PHARM. CO., LTD., priority 2022, published 2026).
One block for each molecule: values may come before it. *1 amine or outer side, *2 acyl side, *3 side chain or, on linkers, in order; H or OH if unused. Bridges are numbered along the chain shown (N, C = ends). Where no end group is shown, it is not given here. Side-chain parts run from the residue outwards. [ ]: non-standard residue; d: D form. The star is where a group is joined. C20 diacid = O=C(O)CCCCCCCCCCCCCCCCCCC(=O)*; γGlu = O=C(O)[C@H](CCC(=O)[*:2])N[*:1]; AEEA = NCCOCCOCC(=O)O; Aib = CC(C)(N)C(=O)O

Assays:
[1] = Weight loss effect in AMLN diet-induced obese mice; type: in vivo; settings: 351 ug/kg, Q2D, subcutaneously, 2 weeks, vs. excipient control, p<0.001 one-way ANOVA, FIG. 1
Method: In order to confirm the weight loss effect of each of the three triple agonists of SEQ ID NO: 1, SEQ ID NO: 2, and SEQ ID NO: 4 prepared in the Example above, an AMLN (amylin) mouse model, known as an obesity model, was used. AMLN diet-induced mice were divided into an excipient control group and groups administered with three types of triple agonists (351 ug/kg, Q2D, subcutaneously), and the administration was repeated for 2 weeks.
After repeated administration for 2 weeks, the body weight was measured, and the change in body weight relative to the body weight immediately before administration (DO) was measured to evaluate weight loss effect.

[2] = target: T1, human GIP receptor (human, UniProt P48546 22-466); assay: cell-based or functional assay
T1 sequence (looked up): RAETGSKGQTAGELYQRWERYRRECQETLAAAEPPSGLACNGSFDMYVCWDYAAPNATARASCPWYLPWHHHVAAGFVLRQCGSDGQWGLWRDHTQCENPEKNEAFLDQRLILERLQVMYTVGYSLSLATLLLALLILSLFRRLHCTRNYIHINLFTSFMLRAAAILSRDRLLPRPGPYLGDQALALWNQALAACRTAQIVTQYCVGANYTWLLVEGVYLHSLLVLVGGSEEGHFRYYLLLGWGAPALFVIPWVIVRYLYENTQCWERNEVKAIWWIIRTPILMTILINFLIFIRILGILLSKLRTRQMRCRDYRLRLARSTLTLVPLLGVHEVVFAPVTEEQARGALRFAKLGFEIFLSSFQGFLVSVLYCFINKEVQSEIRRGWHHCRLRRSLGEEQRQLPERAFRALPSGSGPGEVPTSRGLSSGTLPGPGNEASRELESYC

[3] = target: human GCG receptor (human, UniProt P47871 26-477); assay: cell-based or functional assay
Sequence of human GCG receptor (P47871 26-477): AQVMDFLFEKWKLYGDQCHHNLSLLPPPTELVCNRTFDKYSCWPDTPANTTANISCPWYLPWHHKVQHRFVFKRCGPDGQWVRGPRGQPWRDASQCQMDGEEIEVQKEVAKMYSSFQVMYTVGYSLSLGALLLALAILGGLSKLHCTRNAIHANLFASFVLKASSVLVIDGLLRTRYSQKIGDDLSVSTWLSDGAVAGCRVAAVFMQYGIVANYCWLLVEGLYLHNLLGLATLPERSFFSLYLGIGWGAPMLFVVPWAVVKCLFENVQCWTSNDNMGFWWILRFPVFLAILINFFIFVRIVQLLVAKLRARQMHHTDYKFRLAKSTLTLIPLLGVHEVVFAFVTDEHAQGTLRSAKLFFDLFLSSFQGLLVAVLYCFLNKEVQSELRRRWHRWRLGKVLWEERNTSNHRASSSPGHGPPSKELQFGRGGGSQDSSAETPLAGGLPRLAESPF

[4] = target: human GLP-1 receptor (human, UniProt P43220 24-463); assay: cell-based or functional assay

Molecule: Y-Aib-QGTFTSDYSK(1)YLDEKAAKEFVQWLLDHHPSSGQPPPS (Y[Aib]QGTFTSDYSK([AEEA-AEEA-γGlu-C20 diacid])YLDEKAAKEFVQWLLDHHPSSGQPPPS-NH2; lactam 16-20; N-terminus assumed; SMILES CC(C)C[C@H](NC(=O)[C@H](Cc1ccc(O)cc1)NC(=O)[C@H](CCCCNC(=O)COCCOCCNC(=O)COCCOCCNC(=O)CC[C@H](NC(=O)CCCCCCCCCCCCCCCCCCC(=O)O)C(=O)O)NC(=O)[C@H](CO)NC(=O)[C@H](Cc1ccc(O)cc1)NC(=O)[C@H](CC(=O)O)NC(=O)[C@H](CO)NC(=O)[C@@H](NC(=O)[C@H](Cc1ccccc1)NC(=O)[C@@H](NC(=O)CNC(=O)[C@H](CCC(N)=O)NC(=O)C(C)(C)NC(=O)[C@@H](N)Cc1ccc(O)cc1)[C@@H](C)O)[C@@H](C)O)C(=O)N[C@@H](CC(=O)O)C(=O)N[C@H]1CCC(=O)NCCCC[C@@H](C(=O)N[C@@H](CCC(=O)O)C(=O)N[C@@H](Cc2ccccc2)C(=O)N[C@H](C(=O)N[C@@H](CCC(N)=O)C(=O)N[C@@H](Cc2c[nH]c3ccccc23)C(=O)N[C@@H](CC(C)C)C(=O)N[C@@H](CC(C)C)C(=O)N[C@@H](CC(=O)O)C(=O)N[C@@H](Cc2c[nH]cn2)C(=O)N[C@@H](Cc2c[nH]cn2)C(=O)N2CCC[C@H]2C(=O)N[C@@H](CO)C(=O)N[C@@H](CO)C(=O)NCC(=O)N[C@@H](CCC(N)=O)C(=O)N2CCC[C@H]2C(=O)N2CCC[C@H]2C(=O)N2CCC[C@H]2C(=O)N[C@@H](CO)C(N)=O)C(C)C)NC(=O)[C@H](C)NC(=O)[C@H](C)NC(=O)[C@H](CCCCN)NC1=O) [SEQ ID NO: 1, acylated triple agonist peptide, K(1) at position 12, lactam bridge E16-K20, C-terminus amidated]
weight loss efficacy (change in body weight relative to immediately before administration) [1]: significant weight loss efficacy

Molecule: Y-Aib-QGTFTSDYSK(1)YLDEKRAKEFVQWLLDHHPSSGQPPPS (Y[Aib]QGTFTSDYSK([AEEA-AEEA-γGlu-C20 diacid])YLDEKRAKEFVQWLLDHHPSSGQPPPS-NH2; lactam 16-20; N-terminus assumed; SMILES CC(C)C[C@H](NC(=O)[C@H](Cc1ccc(O)cc1)NC(=O)[C@H](CCCCNC(=O)COCCOCCNC(=O)COCCOCCNC(=O)CC[C@H](NC(=O)CCCCCCCCCCCCCCCCCCC(=O)O)C(=O)O)NC(=O)[C@H](CO)NC(=O)[C@H](Cc1ccc(O)cc1)NC(=O)[C@H](CC(=O)O)NC(=O)[C@H](CO)NC(=O)[C@@H](NC(=O)[C@H](Cc1ccccc1)NC(=O)[C@@H](NC(=O)CNC(=O)[C@H](CCC(N)=O)NC(=O)C(C)(C)NC(=O)[C@@H](N)Cc1ccc(O)cc1)[C@@H](C)O)[C@@H](C)O)C(=O)N[C@@H](CC(=O)O)C(=O)N[C@H]1CCC(=O)NCCCC[C@@H](C(=O)N[C@@H](CCC(=O)O)C(=O)N[C@@H](Cc2ccccc2)C(=O)N[C@H](C(=O)N[C@@H](CCC(N)=O)C(=O)N[C@@H](Cc2c[nH]c3ccccc23)C(=O)N[C@@H](CC(C)C)C(=O)N[C@@H](CC(C)C)C(=O)N[C@@H](CC(=O)O)C(=O)N[C@@H](Cc2c[nH]cn2)C(=O)N[C@@H](Cc2c[nH]cn2)C(=O)N2CCC[C@H]2C(=O)N[C@@H](CO)C(=O)N[C@@H](CO)C(=O)NCC(=O)N[C@@H](CCC(N)=O)C(=O)N2CCC[C@H]2C(=O)N2CCC[C@H]2C(=O)N2CCC[C@H]2C(=O)N[C@@H](CO)C(N)=O)C(C)C)NC(=O)[C@H](C)NC(=O)[C@H](CCCNC(=N)N)NC(=O)[C@H](CCCCN)NC1=O) [SEQ ID NO: 2, acylated triple agonist peptide, K(1) at position 12, lactam bridge E16-K20]
weight loss efficacy (change in body weight relative to immediately before administration) [1]: significant weight loss efficacy

Next, values leading:

In vitro Activity Compared to Native Peptide (%) vs. GIP (relative titer from cAMP EC50) [2]: 7.04 % of human GIP | In vitro Activity Compared to Native Peptide (%) vs. Glucagon (relative titer from cAMP EC50) [3]: 0.4 % of human GCG | In vitro Activity Compared to Native Peptide (%) vs. GLP-1 (relative titer from cAMP EC50) [4]: 5.52 % of human GLP-1
B1: triple agonist of SEQ ID NO: 3 (peptide)
peptide: Y[Aib]QGTFTSDYSK([AEEA-AEEA-γGlu-C20 diacid])YLDEKAAKDFVQWLLDQHPSSGQPPPS-NH2
modifications: lactam 16-20; N-terminus assumed
SMILES: CC(C)C[C@H](NC(=O)[C@H](Cc1ccc(O)cc1)NC(=O)[C@H](CCCCNC(=O)COCCOCCNC(=O)COCCOCCNC(=O)CC[C@H](NC(=O)CCCCCCCCCCCCCCCCCCC(=O)O)C(=O)O)NC(=O)[C@H](CO)NC(=O)[C@H](Cc1ccc(O)cc1)NC(=O)[C@H](CC(=O)O)NC(=O)[C@H](CO)NC(=O)[C@@H](NC(=O)[C@H](Cc1ccccc1)NC(=O)[C@@H](NC(=O)CNC(=O)[C@H](CCC(N)=O)NC(=O)C(C)(C)NC(=O)[C@@H](N)Cc1ccc(O)cc1)[C@@H](C)O)[C@@H](C)O)C(=O)N[C@@H](CC(=O)O)C(=O)N[C@H]1CCC(=O)NCCCC[C@@H](C(=O)N[C@@H](CC(=O)O)C(=O)N[C@@H](Cc2ccccc2)C(=O)N[C@H](C(=O)N[C@@H](CCC(N)=O)C(=O)N[C@@H](Cc2c[nH]c3ccccc23)C(=O)N[C@@H](CC(C)C)C(=O)N[C@@H](CC(C)C)C(=O)N[C@@H](CC(=O)O)C(=O)N[C@@H](CCC(N)=O)C(=O)N[C@@H](Cc2c[nH]cn2)C(=O)N2CCC[C@H]2C(=O)N[C@@H](CO)C(=O)N[C@@H](CO)C(=O)NCC(=O)N[C@@H](CCC(N)=O)C(=O)N2CCC[C@H]2C(=O)N2CCC[C@H]2C(=O)N2CCC[C@H]2C(=O)N[C@@H](CO)C(N)=O)C(C)C)NC(=O)[C@H](C)NC(=O)[C@H](C)NC(=O)[C@H](CCCCN)NC1=O

In vitro Activity Compared to Native Peptide (%) vs. GIP (relative titer from cAMP EC50) [2]: 2.17 % of human GIP | In vitro Activity Compared to Native Peptide (%) vs. Glucagon (relative titer from cAMP EC50) [3]: 3.35 % of human GCG | In vitro Activity Compared to Native Peptide (%) vs. GLP-1 (relative titer from cAMP EC50) [4]: 3.87 % of human GLP-1
B2: triple agonist of SEQ ID NO: 2 (peptide)
peptide: Y[Aib]QGTFTSDYSK([AEEA-AEEA-γGlu-C20 diacid])YLDEKRAKEFVQWLLDHHPSSGQPPPS-NH2
modifications: lactam 16-20; N-terminus assumed
SMILES: CC(C)C[C@H](NC(=O)[C@H](Cc1ccc(O)cc1)NC(=O)[C@H](CCCCNC(=O)COCCOCCNC(=O)COCCOCCNC(=O)CC[C@H](NC(=O)CCCCCCCCCCCCCCCCCCC(=O)O)C(=O)O)NC(=O)[C@H](CO)NC(=O)[C@H](Cc1ccc(O)cc1)NC(=O)[C@H](CC(=O)O)NC(=O)[C@H](CO)NC(=O)[C@@H](NC(=O)[C@H](Cc1ccccc1)NC(=O)[C@@H](NC(=O)CNC(=O)[C@H](CCC(N)=O)NC(=O)C(C)(C)NC(=O)[C@@H](N)Cc1ccc(O)cc1)[C@@H](C)O)[C@@H](C)O)C(=O)N[C@@H](CC(=O)O)C(=O)N[C@H]1CCC(=O)NCCCC[C@@H](C(=O)N[C@@H](CCC(=O)O)C(=O)N[C@@H](Cc2ccccc2)C(=O)N[C@H](C(=O)N[C@@H](CCC(N)=O)C(=O)N[C@@H](Cc2c[nH]c3ccccc23)C(=O)N[C@@H](CC(C)C)C(=O)N[C@@H](CC(C)C)C(=O)N[C@@H](CC(=O)O)C(=O)N[C@@H](Cc2c[nH]cn2)C(=O)N[C@@H](Cc2c[nH]cn2)C(=O)N2CCC[C@H]2C(=O)N[C@@H](CO)C(=O)N[C@@H](CO)C(=O)NCC(=O)N[C@@H](CCC(N)=O)C(=O)N2CCC[C@H]2C(=O)N2CCC[C@H]2C(=O)N2CCC[C@H]2C(=O)N[C@@H](CO)C(N)=O)C(C)C)NC(=O)[C@H](C)NC(=O)[C@H](CCCNC(=N)N)NC(=O)[C@H](CCCCN)NC1=O
